Measurements published in patent US20190225689A1 (Janssen / Centocor, published 2019).

Target: T1, human programmed cell death protein 1, PD-1 (human, UniProt Q15116 25-288)
T1 construct: In the assay it was the endogenous PD-1 on circulating CD3+ T cells of treated patients; also called CD279; PDCD1
Assay: PD-1 receptor occupancy by flow cytometry on circulating CD3+ T cells of dosed patients

T1 sequence (Q15116 25-288 limits assumed): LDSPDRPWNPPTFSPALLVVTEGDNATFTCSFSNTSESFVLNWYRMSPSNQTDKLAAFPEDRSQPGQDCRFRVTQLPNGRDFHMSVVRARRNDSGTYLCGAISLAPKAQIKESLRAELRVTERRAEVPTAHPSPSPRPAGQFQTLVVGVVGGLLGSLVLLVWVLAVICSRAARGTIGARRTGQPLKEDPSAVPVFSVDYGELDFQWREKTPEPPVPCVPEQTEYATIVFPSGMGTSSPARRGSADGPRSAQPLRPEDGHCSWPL

B1: JNJ-63723283 (cetrelimab) (antibody, human IgG4 S228P, kappa, V domains shown)
VH: QVQLVQSGAEVKKPGSSVKVSCKASGGTFSSYAISWVRQAPGQGLEWMGGIIPIFDTANYAQKFQGRVTITADESTSTAYMELSSLRSEDTAVYYCARPGLAAAYDTGSLDYWGQGTLVTVSS
VL: EIVLTQSPATLSLSPGERATLSCRASQSVRSYLAWYQQKPGQAPRLLIYDASNRATGIPARFSGSGSGTDFTLTISSLEPEDFAVYYCQQRNYWPLTFGQGTKVEIKR
notes: IgG4/kappa antibody; also called study drug
Q: Does B1 bind?
A: binds
